From patent US20160033502

Biological target: T1, activated insulin receptor (pYpY1162/1163-IR) of mouse MS-1 endothelial cells, P15208
T1 chain: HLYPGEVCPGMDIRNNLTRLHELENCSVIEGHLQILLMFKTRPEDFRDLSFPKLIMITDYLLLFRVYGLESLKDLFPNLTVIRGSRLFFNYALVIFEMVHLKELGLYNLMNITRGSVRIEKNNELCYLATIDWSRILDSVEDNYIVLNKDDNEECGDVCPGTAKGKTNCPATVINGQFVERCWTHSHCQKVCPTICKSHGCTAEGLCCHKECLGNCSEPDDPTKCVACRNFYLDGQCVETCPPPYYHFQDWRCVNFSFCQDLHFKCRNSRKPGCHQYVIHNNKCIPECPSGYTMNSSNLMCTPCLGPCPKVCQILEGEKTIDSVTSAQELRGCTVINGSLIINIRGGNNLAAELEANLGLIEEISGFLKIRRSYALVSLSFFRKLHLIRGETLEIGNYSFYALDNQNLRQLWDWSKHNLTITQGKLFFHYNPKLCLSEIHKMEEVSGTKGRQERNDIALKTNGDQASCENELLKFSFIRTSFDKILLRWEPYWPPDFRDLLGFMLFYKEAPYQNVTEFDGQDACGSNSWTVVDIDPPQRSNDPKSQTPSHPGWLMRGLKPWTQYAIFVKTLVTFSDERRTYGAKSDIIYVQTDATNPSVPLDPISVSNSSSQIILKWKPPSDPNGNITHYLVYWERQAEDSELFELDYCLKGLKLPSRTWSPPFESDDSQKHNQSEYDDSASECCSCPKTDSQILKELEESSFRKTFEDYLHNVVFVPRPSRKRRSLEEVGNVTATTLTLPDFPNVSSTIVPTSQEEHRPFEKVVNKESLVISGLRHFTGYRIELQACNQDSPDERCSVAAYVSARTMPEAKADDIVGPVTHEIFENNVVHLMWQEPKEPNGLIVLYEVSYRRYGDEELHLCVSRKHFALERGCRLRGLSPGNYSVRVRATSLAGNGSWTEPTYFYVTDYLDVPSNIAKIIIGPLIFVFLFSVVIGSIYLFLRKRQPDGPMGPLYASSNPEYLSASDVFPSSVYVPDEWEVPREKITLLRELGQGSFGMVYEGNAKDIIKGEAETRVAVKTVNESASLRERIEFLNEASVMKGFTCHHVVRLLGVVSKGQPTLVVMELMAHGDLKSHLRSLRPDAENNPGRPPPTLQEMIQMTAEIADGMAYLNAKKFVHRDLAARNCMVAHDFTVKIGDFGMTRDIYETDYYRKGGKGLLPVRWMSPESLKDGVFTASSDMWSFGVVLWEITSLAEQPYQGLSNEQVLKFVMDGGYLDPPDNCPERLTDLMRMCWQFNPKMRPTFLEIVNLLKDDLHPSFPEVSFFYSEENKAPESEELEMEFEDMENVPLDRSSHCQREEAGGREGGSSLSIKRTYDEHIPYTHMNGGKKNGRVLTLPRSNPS

B1: HA-tagged C215S mutant form of full-length PTP1B (protein)
chain: MEMEKEFEQIDKSGSWAAIYQDIRHEASDFPCRVAKLPKNKNRNRYRDVSPFDHSRIKLHQEDNDYINASLIKMEEAQRSYILTQGPLPNTCGHFWEMVWEQKSRGVVMLNRVMEKGSLKCAQYWPQKEEKEMIFEDTNLKLTLISEDIKSYYTVRQLELENLTTQETREILHFHYTTWPDFGVPESPASFLNFLFKVRESGSLSPEHGPVVVHSSAGIGRSGTFCLADTCLLLMDKRKDPSSVDIKKVLLEMRKFRMGLIQTADQLRFSYLAVIEGAKFIMGDSSVQDQWKELSHEDLEPPPEHIPPPPRPPKRILEPHNGKCREFFPNHQWVKEETQEDKDCPIKEEKGSPLNAAPYGIESMSQDTEVRSRVVGGSLRGAQAASPAKGEPSLPEKDEDHALSYWKPFLVNMCVATVLTAGAYLCYRFLFNSNT
IR pYpY1162/1163 phosphorylation (immunoblot, ratio of phosphorylated InRβ to total InRβ): such eNOS ablation-caused defect of insulin signaling was significantly restored by ectopic expression of PTP1B-C215S
